Publication PMC12533913

Tests used:
Experiment in all cases: SPR
[1] = biological target: Influenza A virus A/WSN/1933 (H1N1) particles, purified (Influenza A virus A/WSN/1933 (H1N1)) (UniProt P03470)
[2] = biological target: Influenza A H1N1 (A/Puerto Rico/8/34/Mount Sinai) Matrix protein 1 / M1 Protein (His Tag) (Influenza A virus A/Puerto Rico/8/34/Mount Sinai (H1N1)) (UniProt P03485)
[3] = biological target: Influenza NA protein (recombinant, bought) (Influenza A virus (strain not stated)) (UniProt P03470)

Sequence of UniProt P03485 (P03485 whole entry): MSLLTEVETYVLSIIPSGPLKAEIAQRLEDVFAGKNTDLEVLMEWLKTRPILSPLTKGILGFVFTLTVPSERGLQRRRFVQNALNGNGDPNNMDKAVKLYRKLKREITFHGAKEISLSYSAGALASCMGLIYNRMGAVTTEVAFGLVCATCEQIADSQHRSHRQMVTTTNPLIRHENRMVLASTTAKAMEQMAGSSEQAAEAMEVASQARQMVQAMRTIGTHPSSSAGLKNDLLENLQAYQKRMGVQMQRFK

Work on “TfR1 protein (recombinant, bought from Sino Biological) (from UniProt P02786 1-760) (receptor)” yielded a Kd [1] of 34.6 nM, a Kd [2] of 75.9 nM and a Kd [3] of 42.4 nM.
